In publication PMC12534491:

Biological target: T1, Tat peptide (arginine-rich motif) (HIV-1, UniProt P04608)
T1 chain: RKKRRQRRRPPQG
Experiment: in-cell NMR

## GGGAGCUUGAUCCCGGAAACGGUCGAUCGCUCCC (structured_RNA) [anti-Tat RNA aptamer]
  binding result: binds
